± gives the uncertainty stated by the source.

A short description of this series: protein stability index of a GFP-peptide fusion (yeast GPS) (PSI 1-4); higher = more stable; sorted into four equal gates, so the index is relative within each strain. In outline:
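The protein stability index combines read frequencies across sorting gates, each weighted by its gate number and then summed. To obtain those frequencies, a pooled yeast library of GFP fusions to tiled 17-residue yeast protein peptides, on a plasmid also expressing Cherry, was grown to mid-log phase in leucine-free medium. The cells were sorted into four equal gates by GFP/Cherry ratio before plasmid amplification by PCR and Illumina sequencing.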

Regarding RSMIEHARTAAVTHNLY [PUP2], the protein stability index reads like this: (doa10∆) 2.16 ± 0.13; (pdr5∆) 2.98 ± 0.22; (san1∆) 2.46 ± 0.13; (ubr1∆) 2.67 ± 0.083.

For KTSSGSYNYVENGIEVE [ITC1], the protein stability index by setting is: (doa10∆) 3.31 ± 0.18; (pdr5∆) 3.2 ± 0.2; (san1∆) 2.95 ± 0.12; (ubr1∆) 3.31 ± 0.17.

The sequence TDDQGRVIDDNNRRRSR [SIR3] came in with a protein stability index (doa10∆) of 3.66 ± 0.12, a protein stability index (pdr5∆) of 3.05 ± 0.24 and a protein stability index (san1∆) of 3.39 ± 0.17.

On to MVKLIVMLCTLTGYQNN [YJL039C/NUP192], for which the protein stability index runs as follows: (doa10∆) 1.9 ± 0.12; (pdr5∆) 1.52 ± 0.075; (san1∆) 1.99 ± 0.11; (ubr1∆) 1.5 ± 0.095.

In the case of VGQLNKVVDQLFEKASV [RPN6], the protein stability index (doa10∆) amounted to 2.5 ± 0.063, the protein stability index (pdr5∆) was 2.51 ± 0.15, the protein stability index (san1∆) was 2.77 ± 0.076 and the protein stability index (ubr1∆) came out at 2.5 ± 0.058.

On to SYEYYNIKHKHTSIRET [SMC2], for which the protein stability index by setting is: (doa10∆) 1.61 ± 0.047; (pdr5∆) 1.83 ± 0.066; (san1∆) 1.67 ± 0.11; (ubr1∆) 1.87 ± 0.049.

As to MSDTEAPVEVQEDFEVV [RPS5], the protein stability index (doa10∆) amounted to 3.23 ± 0.1, the protein stability index (pdr5∆) stood at 3.24 ± 0.15, the protein stability index (san1∆) came out at 3.35 ± 0.078 and the protein stability index (ubr1∆) was 3.09 ± 0.086.

On to SDAKEQHQSLSRSSSKN [ESC2], for which the protein stability index was 2.85 ± 0.14 (doa10∆), 3.21 ± 0.14 (pdr5∆), 3.26 ± 0.074 (san1∆) and 3.27 ± 0.11 (ubr1∆).

The sequence IVKNAEQHNLVKKGPVR [RPS20] came in with a protein stability index (doa10∆) of 2.84 ± 0.058, a protein stability index (pdr5∆) of 3.13 ± 0.066, a protein stability index (san1∆) of 2.9 ± 0.072 and a protein stability index (ubr1∆) of 2.95 ± 0.078.

On to QFIYAGKKASLNVGNVL [RPL2A], for which the protein stability index (doa10∆) is 2.59 ± 0.092, the protein stability index (pdr5∆) came to 2.81 ± 0.11, the protein stability index (san1∆) is 2.86 ± 0.11 and the protein stability index (ubr1∆) stood at 2.8 ± 0.092.

Take DGILRLYDALEPSDLRS [YGL100W/SEH1]: the protein stability index runs as follows: (doa10∆) 3.02 ± 0.061; (pdr5∆) 3.02 ± 0.051; (san1∆) 2.77 ± 0.041; (ubr1∆) 2.99 ± 0.042.

DPVEGNLEFDSTNHPDY [SRP14]: the protein stability index is, setting by setting: (doa10∆) 2.9 ± 0.066; (pdr5∆) 2.79 ± 0.068; (san1∆) 3.09 ± 0.049; (ubr1∆) 2.95 ± 0.051.

As to LNINNPNFLIMQGKITK [SMC2], the protein stability index is, setting by setting: (doa10∆) 3.39 ± 0.26; (pdr5∆) 2.47 ± 0.19; (san1∆) 2.87 ± 0.13.

In the case of YGGSRCANCVKERIIRA [RPL34A], the protein stability index (doa10∆) was found to be 1.56 ± 0.061, the protein stability index (pdr5∆) turned out to be 2.81 ± 0.074, the protein stability index (san1∆) amounted to 2.44 ± 0.082 and the protein stability index (ubr1∆) turned out to be 1.57 ± 0.065.

As to LVEYGFDPSRIKDLKQR [SMC2], the protein stability index by setting is: (doa10∆) 2.04 ± 0.049; (pdr5∆) 2.57 ± 0.074; (san1∆) 2.16 ± 0.082; (ubr1∆) 2.51 ± 0.064.

In the case of VAAERAARKAANKEKRA [RPL7A], the protein stability index amounted to 2.36 ± 0.21 (doa10∆), 1.54 ± 0.12 (pdr5∆) and 1.71 ± 0.082 (ubr1∆).

For NIQKKQPAKEKGVTEKD [RRP6], the protein stability index reads like this: (doa10∆) 3.12 ± 0.1; (pdr5∆) 3.17 ± 0.045; (san1∆) 3.11 ± 0.051; (ubr1∆) 3.28 ± 0.047.

In the case of KGLQIYQSSVQEPFLNS [PRP8], the protein stability index reads like this: (doa10∆) 2.89 ± 0.05; (pdr5∆) 2.94 ± 0.044; (san1∆) 2.76 ± 0.048; (ubr1∆) 2.83 ± 0.04.

Take AFPHLYNSRPRSVRIPW [PRP8]: the protein stability index came out at 2.94 ± 0.1 (doa10∆), 2.45 ± 0.084 (pdr5∆), 1.7 ± 0.13 (san1∆) and 2.59 ± 0.066 (ubr1∆).

For ATVEECVKLTVRSLLEV [PRE6], the protein stability index is, setting by setting: (doa10∆) 1.53 ± 0.052; (pdr5∆) 1.72 ± 0.064; (san1∆) 1.88 ± 0.12; (ubr1∆) 1.47 ± 0.055.

PGTGKTLLARAVAHHTD [RPT6] registered a protein stability index (doa10∆) of 1.78 ± 0.05, a protein stability index (pdr5∆) of 2.76 ± 0.06, a protein stability index (san1∆) of 1.53 ± 0.11 and a protein stability index (ubr1∆) of 1.49 ± 0.057.

Consider RLEEESSWQIYSDENDP [RRP4], for which the protein stability index is, setting by setting: (pdr5∆) 2.93 ± 0.16; (san1∆) 2.93 ± 0.24; (ubr1∆) 3.53 ± 0.16.

For the sequence GFVIQDRETALDFIGRR [RPB2], the protein stability index by setting is: (doa10∆) 3.02 ± 0.075; (pdr5∆) 2.92 ± 0.13; (san1∆) 3.34 ± 0.077; (ubr1∆) 3 ± 0.11.

FNKTTNIDINNEDENIQ [YJL041W/NSP1]: the protein stability index by setting is: (doa10∆) 3.19 ± 0.074; (pdr5∆) 3.31 ± 0.082; (san1∆) 3.09 ± 0.056; (ubr1∆) 3.2 ± 0.059.

Take NSPNYFVAKLAAQIFGS [COR1]: the protein stability index by setting is: (doa10∆) 1.84 ± 0.044; (pdr5∆) 2.02 ± 0.061; (san1∆) 1.68 ± 0.08; (ubr1∆) 2.12 ± 0.049.

Regarding EQYIQELDKREDMIDQV [SMC3], the protein stability index runs as follows: (doa10∆) 3.23 ± 0.065; (pdr5∆) 3.03 ± 0.084; (san1∆) 3.01 ± 0.072; (ubr1∆) 3.29 ± 0.15.

For GDIKPEFSPRLHNIWSN [YML103C/NUP188], the protein stability index was 3.22 ± 0.14 (doa10∆), 2.98 ± 0.091 (pdr5∆), 3.32 ± 0.11 (san1∆) and 3.51 ± 0.11 (ubr1∆).

Take LHIHLNQILQTEIENYL [YDL116W/NUP84]: the protein stability index (doa10∆) worked out at 1.88 ± 0.054, the protein stability index (pdr5∆) is 2.15 ± 0.042, the protein stability index (san1∆) is 2.03 ± 0.075 and the protein stability index (ubr1∆) was 1.86 ± 0.043.

Regarding PLSAGFNYGKLPLPPSV [SIN4], the protein stability index was determined as 2.75 ± 0.074 (doa10∆), 2.9 ± 0.068 (pdr5∆), 2.84 ± 0.038 (san1∆) and 2.93 ± 0.051 (ubr1∆).

Take ETEIKDLTQLLEKERSI [SMC4]: the protein stability index worked out at 3.34 ± 0.079 (doa10∆), 3.15 ± 0.048 (pdr5∆), 3.24 ± 0.051 (san1∆) and 3.25 ± 0.039 (ubr1∆).

EPFTILGAVAGLIPYPH [RET1]: the protein stability index (doa10∆) was 2.17 ± 0.063, the protein stability index (pdr5∆) is 2.13 ± 0.051, the protein stability index (san1∆) was found to be 2.13 ± 0.078 and the protein stability index (ubr1∆) was 1.83 ± 0.043.

For the sequence VDSGEERNEQEREIMND [SWI3], the protein stability index reads like this: (doa10∆) 3.42 ± 0.069; (pdr5∆) 3.26 ± 0.064; (san1∆) 3.02 ± 0.079; (ubr1∆) 3.24 ± 0.11.

Consider QVSKKLSSIEASLKIKN [SMC3], for which the protein stability index by setting is: (doa10∆) 1.67 ± 0.069; (pdr5∆) 1.7 ± 0.085; (san1∆) 2.44 ± 0.12; (ubr1∆) 2.27 ± 0.08.

As to ILNINNSTSKNTLLQQQ [SWI1], the protein stability index (doa10∆) is 2.37 ± 0.052, the protein stability index (pdr5∆) is 2.87 ± 0.08, the protein stability index (san1∆) was found to be 2 ± 0.069 and the protein stability index (ubr1∆) amounted to 2.4 ± 0.047.

Consider KICSSEMINEQKLPQYI [RGR1], for which the protein stability index is, setting by setting: (doa10∆) 3.02 ± 0.11; (pdr5∆) 2.9 ± 0.13; (san1∆) 3.01 ± 0.15; (ubr1∆) 2.98 ± 0.1.

Regarding NKNQDAFEAELSNIPLL [ARP9], the protein stability index is, setting by setting: (doa10∆) 3.12 ± 0.098; (pdr5∆) 3.23 ± 0.086; (san1∆) 3.01 ± 0.084; (ubr1∆) 3.31 ± 0.076.

Take SPTYSPTSPAYSPTSPS [RPO21]: the protein stability index reads like this: (doa10∆) 3.08 ± 0.045; (pdr5∆) 3.05 ± 0.042; (san1∆) 3 ± 0.032; (ubr1∆) 2.93 ± 0.033.

The record behind these values is the supplement of paper PMC9732359.
